One experiment relates to P. cinnamomi. Put plainly: Potted young cork oak inoculated with P. cinnamomi, extension of root lesions. The class given is in vivo, Quercus suber. To be noted: plants sprayed; for root lesion severity: compared with inoculated control. Here is the method: In a separate experiment, potted young cork oak plants (Quercus suber) were inoculated with P. cinnamomi and incubated under greenhouse conditions. The plants were sprayed with potassium phosphonate, salicylic acid, Blad and other compounds/extracts under study. The severity of the infection was assessed by quantifying the extension of plant root lesions.

The test system of another experiment is P. chlamydospora. Put plainly: Pruning wound protection under real vineyard conditions, wounds brushed with P. chlamydospora spores. The class given is in vivo, grapevine. The conditions noted are these: for fungi re-isolated in vitro from the treated wood: culture-dependent methods. Here is the method:
In an experiment designed as an attempt to protect pruning wounds from esca fungal infection, a couple of surprising observations were made when immediately after pruning under real vineyard conditions, the fresh wounds were brushed with 50 μl of water (control), or of Blad, the commercial fungicide Switch or copper oxychloride solutions (24 replicates for each treatment), and 24 h, 1 month and 2 months afterwards the pruning wounds were brushed with P. chlamydospora spore suspensions. […] On top of that, the diversity of fungi that could be re-isolated in vitro (using culture-dependent methods) from that wood was also lower. […] This remarks the efficient fungicide activity of the two chemicals on P. chlamyobspora, although this fungus seems to be less affected than other natural endophytes of the grapevine. The applicant's analyses of the mycobiome by metabarcoding using Illumina® next-generation sequencing (NGS) techniques detected only minor changes in some taxa composition and in colonization success of some endophytes in grapevine wood after a single copper application. The copper/systemic fungicides didn't change the mycobiome composition in major ways and didn't even directly advantage the pathogen.

The test system of a further experiment is external fungi. Put plainly: Fungicides in vitro on potato dextrose agar Petri dishes. The experiment is classed as cell-based. To be noted: PDA plus individual fungicides.
Experiment [1] in a line: Early growth at bud break after application onto pruning wound. To be noted: 50 μl onto the pruning wound, one treatment per plant. The experiment is classed as in vivo, grapevine. Here is the method: The photos were taken at the same plant a couple of months later, at bud break. Compare with the natural development state of the vineyard in the background. Twenty-four replicates were prepared for each treatment.

A short description of experiment [2]: Growth of nine-week-old carrots in soil with skopobiota-loaded bentochar, with or without Blad spray. The experiment is classed as in vivo, carrot cv Nantes. Here is the method: (§1) Twelve carrot seeds cv Nantes were sown in soil containing the different combinations of SLB described above, as well as in positive and negative controls, for a total of 12 treatments (see below). Four weeks after sowing, six mycelium plugs of Trichoderma gamsii were added to each treatment tests, with the exception of the ‘negative control’.
Nine weeks after sowing, carrots were examined for three parameters: (1) above-ground growth, (2) number of fully unfolded leaves, and (3) presence of necrotic lesions or browning in roots.
(§2) Similarly to what described in section ‘Effects on the growth of nine-week-old carrots’, the same skopobiota-loaded bentochar treatments were tested also in combination with a weekly spray of Blad on carrot leaves. The tested Blad concentration was 2 mL Blad per L of water.
The same parameters described in ‘Effects on the growth of nine-week-old carrots’ were assessed.

In another experiment the test system is grapevine wood mycobiome. Put plainly: Grapevine wood mycobiome composition and networks after fungicide treatments (metabarcoding). The experiment is classed as in vivo, Vitis vinifera cv Cabernet Sauvignon. To be noted: foliar application / spray. The text has this:
Wood samples were carefully collected from grapevine rooted cuttings of Vitis vinifera cv Cabernet Sauvignon grown under greenhouse conditions, which underwent different inoculations and fungicide treatments and their mycobiomes identified by metabarcoding using Illumina® next-generation sequencing (NGS) techniques. The barplots represented in FIG. 2 show the relative abundances of grapevine wood taxa in plants subjected to different fungicide treatments and inoculation types.
FIG. 4 illustrates the effect of fungicide applications on the grapevine wood relative taxa abundance.
In FIG. 4, the differential heat tree matrix depicts the changes in taxa abundance between different fungicide treatments. The size of the individual nodes in the grey cladogram depicts the number of taxa identified at that taxonomic level. The smaller cladograms show pairwise comparisons between each treatment, with the colour illustrating the log2 fold change: a red node indicates a lower abundance of the taxon in the tissue group stated on the abscissa, than in the tissue group stated on the ordinate. A blue node indicates the opposite.
The networks presented in FIG. 5 show how Blad creates a different link among taxa, when compared with control and other fungicides.

For experiment [3], the system named is Phaeomoniella chlamydospora. In words: Relative abundance of P. chlamydospora in wood of potted grapevine cuttings (metabarcoding, greenhouse). The class given is in vivo, Vitis vinifera cv Cabernet Sauvignon. The conditions noted are these: for relative abundances (%) of P. chlamydospora: fungicide treatment per column. The text has this: Wood samples were carefully collected from grapevine rooted cuttings of Vitis vinifera cv Cabernet Sauvignon grown under greenhouse conditions, which underwent different inoculations and fungicide treatments and their mycobiomes identified by metabarcoding using Illumina® next-generation sequencing (NGS) techniques.
On top, barplots grouped by ‘Inoculation’ type; bottom, barplots grouped by ‘Fungicide’ treatment.
In a subsequent experiment (see also below), potted vines were co-inoculated with P. chlamydospora and a skopobiota (spore suspensions from four fungal species naturally occurring in the grapevine microbiome).
C22 and Aureobasidium pullulans AU86. All fungi were maintained in Petri dishes with vents, on potato dextrose agar medium (Difco™), at 25° C., in the dark.

Another experiment concerns Trichoderma gamsii. Put plainly: Root browning and necrotic lesions score in carrot roots. The experiment is classed as in vivo, carrot cv Nantes. Here is the method: as §1
A combination of factors, in which the presence of Trichoderma gamsii was determinant, induced the presence of root browning and necrotic lesion, as shown in FIG. 32.
Carrot roots of each biological replicate, grown under different treatments, were examined to assess differences in the development of root browning and necrotic lesions.
as §2

Setting [4] is: With Blad, weekly spray on leaves, 2 mL Blad per L of water.

The values below come from US20220408730A1, “PLANT TREATMENT” (INSTITUTO SUPERIOR DE AGRONOMIA, priority 2019, published 2022).

Entries after “also recorded” stand apart in the source; their conditions may differ.

“potassium phosphonate [reference compound]”: in the experiment with P. cinnamomi, the root lesion severity entry is “lower than the inoculated control”.
On the same count and under the same terms, as for `O=C(O)c1ccccc1O` [salicylic acid, reference compound], the entry is “lower than the inoculated control”.
With `[Cl-].[Cu+2].[Cu+2].[OH-].[OH-].[OH-]` [copper, copper oxychloride], in the experiment on P. chlamydospora, the “fungi re-isolated in vitro from the treated wood” value was “nothing but P. chlamydospora could be re-isolated”. Besides, the “brown streaking of artificially infected shoots” value in the experiment on P. chlamydospora (fresh pruning wounds brushed with 50 μl, then P. chlamydospora spores) is given as “darker brown streaking”. Besides, the “contamination of PDA Petri dishes containing the fungicide” value in the experiment with external fungi is recorded as “to a minor extent”.

B1: Blad: 173-residue polypeptide (SEQ ID NO: 4), residues 109-281 of Lupinus β-conglutin precursor; main subunit of the 210 kDa oligomer BCO (protein)
chain: ARGARGGLNARGASNPRTYRHISPHESERSERGLNARGPHEGLNTHRLETYRLYSASNARGASNGLYLYSILEARGVALLEGLARGPHEASPGLNARGTHRASNARGLEGLASNLEGLNASNTYRARGILEVALGLPHEGLNSERLYSPRASNTHRLEILELEPRLYSHISSERASPALAASPTYRVALLEVALVALLEASNGLYARGALATHRILETHRILEVALASNPRASPARGARGGLNALATYRASNLEGLTYRGLYASPALALEARGILEPRALAGLYSERTHRSERTYRILELEASNPRASPASPASNGLNLYSLEARGVALVALLYSLEALAILEPRILEASNASNPRGLYTYRPHETYRASPPHETYRPRSERSERTHRLYSASPGLNGLNSERTYRPHESERGLYPHESERARGASNTHRLEGLALATHRPHEASNTHRARGTYRGLGLILEGLNARGILEILELEGLYASNGLASP
In the case of B1, the “early growth several months after pruning” value in experiment [1] is reported as “boost observed in the early growth”. In addition, in the experiment with P. cinnamomi, the “root lesion severity versus non-inoculated control” value was “did not differ significantly from the non-inoculated control”. Moreover, the figures for the root lesion severity entry with P. cinnamomi and in the experiment with P. cinnamomi (listed as BLAD) were “only treatment producing excellent results on the infection levels; also recorded: lower than the inoculated control” and “lowest lesion severity”, respectively. Also, the “Above-ground growth (% of control) Mean ± SD” value in experiment [2] (setting [4]) is listed as 98% ± % of control. Also, the “Number of leaves (% of control) Mean ± SD” value in experiment [2] (setting [4]) was 108% ± % of control. Moreover, the “number of leaves of carrots” value in experiment [2] (in words, compared with treatments without Blad) is on record as “increases the overall number of leaves”. Moreover, the “above-ground growth of carrots” value in experiment [2] (in words, weekly spray with Blad) is reported as “positively affected”. The “changes in the grapevine wood mycobiome” value with grapevine wood mycobiome is reported as “created a different network of interactions in the wood mycobiome; also recorded: induced marked changes in the grapevine wood mycobiome”. For the same molecule, the “relative abundances (%) of P. chlamydospora” value in experiment [3] (NO-INOCULATION, potted rooted grapevine cuttings, greenhouse) is listed as 3.78%; in experiment [3] (inoculated with P. chlamydospora + skopobiota at separate locations in the trunk), 1.34%; in experiment [3] (inoculated with P. chlamydospora alone), 6.31%. Besides, the “relative abundance of P. chlamydospora” value in experiment [3] (potted vines co-inoculated with P. chlamydospora and a skopobiota (four fungal species)) was found to be 1%. Further, in experiment [3] (potted vines inoculated with P. chlamydospora and sprayed), the “relative abundance of the inoculated pathogen” value was 6%. For the same molecule, the “Total score of root symptoms” value in the experiment with Trichoderma gamsii (With Blad, weekly spray, 2 mL Blad per L of water) was 2. In the experiment on Trichoderma gamsii (in words), the “root symptomatology compared with the positive control” value is given as “strongly reduced the development of root symptoms”. The “fungi re-isolated in vitro from the treated wood” value with P. chlamydospora was “many other endophytes”.
